Measurements published in PMC11508082 (PLOS Pathogens, 2024).

Target: the molecule itself
Test: SDS-PAGE and anti-6xHis immunoblot of Ni-affinity elution fractions

B1: 6xHis tagged PdhR (natural protein)
chain: MAYSKIRQPKLSDVIEQQLEFLILEGTLRPGEKLPPERELAKQFDVSRPSLREAIQRLEAKGLLLRRQGGGTFVQSSLWQSFSDPLVELLSDHPESQYDLLETRHALEGIAAYYAALRSTDEDKERIRELHHAIELAQQSGDLDAESNAVLQYQIAVTEAAHNVVLLHLLRCMEPMLAQNVRQNFELLYSRREMLPLVSSHRTRIFEAIMAGKPEEAREASHRHLAFIEEILLDRSREESRRERSLRRLEQRKN
notes: also called PdhR-his; recombinant PdhR-his; source: E. coli BL21 DE3 (pET21a(+)), purified (Ni2+ chelating column, HisTrap)
- stoichiometry N: 2
